# Source: paper PMC9482650, “Quantitative fragmentomics allow affinity mapping of interactomes” (Nature Communications, 2022)
# T1: ARHGAP21, Q5T5U3
# T1 sequence (Q5T5U3 45-169, limits assumed, looked up): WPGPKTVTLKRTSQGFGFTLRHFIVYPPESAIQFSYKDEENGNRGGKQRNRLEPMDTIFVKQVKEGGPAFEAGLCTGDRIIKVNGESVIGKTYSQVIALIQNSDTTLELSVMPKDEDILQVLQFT
# T2: PDZD2_2, O15018
# T2 sequence (O15018 329-429, limits assumed, looked up): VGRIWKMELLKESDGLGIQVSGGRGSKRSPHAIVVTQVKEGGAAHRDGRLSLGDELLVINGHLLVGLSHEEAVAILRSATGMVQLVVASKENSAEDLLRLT
# T3: TIAM2, Q8IVF5
# T3 sequence (Q8IVF5 885-986, limits assumed, looked up): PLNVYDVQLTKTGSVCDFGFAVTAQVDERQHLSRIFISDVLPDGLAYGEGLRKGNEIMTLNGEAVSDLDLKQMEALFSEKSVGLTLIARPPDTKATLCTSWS
# T4: GRIP1_4, Q9Y3R0
# T4 sequence (Q9Y3R0 467-571, limits assumed, looked up): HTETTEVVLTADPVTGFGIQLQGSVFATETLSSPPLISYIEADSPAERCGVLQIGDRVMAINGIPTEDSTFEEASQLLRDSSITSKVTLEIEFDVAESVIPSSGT
# T5: LIN7B, Q9HAP6
# T5 sequence (Q9HAP6 88-185, limits assumed, looked up): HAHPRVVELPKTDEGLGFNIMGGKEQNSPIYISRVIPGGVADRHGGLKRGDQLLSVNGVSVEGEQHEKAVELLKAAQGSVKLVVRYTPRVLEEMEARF
# T6: MPP6, Q9NZW5
# T6 sequence (Q9NZW5 125-219, limits assumed, looked up): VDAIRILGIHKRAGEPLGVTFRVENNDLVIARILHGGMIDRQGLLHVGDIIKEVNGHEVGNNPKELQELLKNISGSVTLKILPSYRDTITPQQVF
# T7: DLG3_1, Q92796
# T7 sequence (Q92796 125-227, limits assumed, looked up): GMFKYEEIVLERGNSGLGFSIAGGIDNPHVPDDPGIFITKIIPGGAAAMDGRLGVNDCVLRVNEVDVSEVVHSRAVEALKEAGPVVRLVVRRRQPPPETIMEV
# T8: MPDZ_10, O75970
# T8 sequence (O75970 1624-1722, limits assumed, looked up): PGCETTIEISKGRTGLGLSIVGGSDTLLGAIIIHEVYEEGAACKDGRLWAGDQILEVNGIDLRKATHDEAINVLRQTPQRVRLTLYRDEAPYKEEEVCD
# T9: TX1BP3, O14907
# T9 sequence (O14907 10-122, limits assumed, looked up): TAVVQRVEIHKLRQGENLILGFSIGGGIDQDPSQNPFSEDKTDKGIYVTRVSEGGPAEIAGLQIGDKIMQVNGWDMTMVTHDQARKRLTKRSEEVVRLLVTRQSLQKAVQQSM
# T10: SNTB1, Q13884
# T10 sequence (Q13884 107-205, limits assumed, looked up): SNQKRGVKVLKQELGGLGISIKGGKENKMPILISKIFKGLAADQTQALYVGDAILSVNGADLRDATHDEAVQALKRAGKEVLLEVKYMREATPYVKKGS
# T11: LIN7C, Q9NUP9
# T11 sequence (Q9NUP9 88-185, limits assumed, looked up): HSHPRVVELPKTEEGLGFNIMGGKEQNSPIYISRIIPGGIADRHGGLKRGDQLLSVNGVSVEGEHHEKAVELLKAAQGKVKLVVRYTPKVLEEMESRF
# T12: MPDZ_5, O75970
# T12 sequence (O75970 695-796, limits assumed, looked up): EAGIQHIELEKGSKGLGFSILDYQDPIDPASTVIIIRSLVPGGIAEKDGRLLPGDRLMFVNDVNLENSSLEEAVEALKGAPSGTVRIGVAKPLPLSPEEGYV
# Legend:
# Assay in all cases: holdup assay
# Parameters in all cases: key: below the threshold = too weak to quantify, mostly under pKd 3.1 to 4
# ARHGAP21, Q5T5U3 = molecular target: T1, ARHGAP21, Q5T5U3
# PDZD2_2, O15018 = molecular target: T2, PDZD2_2, O15018
# TIAM2, Q8IVF5 = molecular target: T3, TIAM2, Q8IVF5
# LNX1_2, Q8TBB1 = molecular target: LNX1_2, Q8TBB1
# Sequence of LNX1_2, Q8TBB1 (Q8TBB1 371-470): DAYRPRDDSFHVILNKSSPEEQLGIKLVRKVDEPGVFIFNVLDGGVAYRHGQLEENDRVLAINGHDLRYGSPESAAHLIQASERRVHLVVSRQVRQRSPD
# LAP2, Q96RT1 = molecular target: LAP2, Q96RT1
# Sequence of LAP2, Q96RT1 (Q96RT1 other isoform, or with tags, fused parts or gaps): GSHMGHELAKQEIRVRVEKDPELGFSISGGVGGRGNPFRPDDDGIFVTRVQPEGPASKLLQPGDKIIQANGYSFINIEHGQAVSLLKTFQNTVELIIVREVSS
# FRMPD2_2, Q68DX3 = molecular target: FRMPD2_2, Q68DX3
# Sequence of FRMPD2_2, Q68DX3 (Q68DX3 944-1038): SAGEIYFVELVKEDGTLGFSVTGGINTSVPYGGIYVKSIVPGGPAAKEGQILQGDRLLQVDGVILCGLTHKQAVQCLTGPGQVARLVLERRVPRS
# GRIP1_4, Q9Y3R0 = molecular target: T4, GRIP1_4, Q9Y3R0
# FRMPD2_1, Q68DX3 = molecular target: FRMPD2_1, Q68DX3
# Sequence of FRMPD2_1, Q68DX3 (Q68DX3 770-861): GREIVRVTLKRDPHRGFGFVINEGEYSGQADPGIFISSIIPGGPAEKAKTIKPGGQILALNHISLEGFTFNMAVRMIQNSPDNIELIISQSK
# LIN7B, Q9HAP6 = molecular target: T5, LIN7B, Q9HAP6
# SCRIB_3, Q14160 = molecular target: SCRIB_3, Q14160
# Sequence of SCRIB_3, Q14160 (Q14160 999-1103): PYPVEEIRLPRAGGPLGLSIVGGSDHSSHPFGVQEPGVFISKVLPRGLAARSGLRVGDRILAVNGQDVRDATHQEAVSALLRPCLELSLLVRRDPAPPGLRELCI
# MPP6, Q9NZW5 = molecular target: T6, MPP6, Q9NZW5
# MAGI1_2, Q96QZ7 = molecular target: MAGI1_2, Q96QZ7
# Sequence of MAGI1_2, Q96QZ7 (Q96QZ7 456-580): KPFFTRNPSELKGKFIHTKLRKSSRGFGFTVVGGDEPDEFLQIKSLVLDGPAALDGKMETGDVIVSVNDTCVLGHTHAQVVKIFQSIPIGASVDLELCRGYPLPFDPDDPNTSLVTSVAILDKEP
# DLG3_1, Q92796 = molecular target: T7, DLG3_1, Q92796
# MPDZ_10, O75970 = molecular target: T8, MPDZ_10, O75970
# GRID2IP_2, A4D2P6 = molecular target: GRID2IP_2, A4D2P6
# Sequence of GRID2IP_2, A4D2P6 (A4D2P6 272-370): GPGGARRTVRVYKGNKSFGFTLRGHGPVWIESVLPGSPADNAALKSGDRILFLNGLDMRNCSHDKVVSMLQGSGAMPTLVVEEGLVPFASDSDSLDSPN
# TX1BP3, O14907 = molecular target: T9, TX1BP3, O14907
# SNTB1, Q13884 = molecular target: T10, SNTB1, Q13884
# Inadl_6, Q8NI35 = molecular target: Inadl_6, Q8NI35
# Sequence of Inadl_6, Q8NI35 (Q8NI35 1058-1167): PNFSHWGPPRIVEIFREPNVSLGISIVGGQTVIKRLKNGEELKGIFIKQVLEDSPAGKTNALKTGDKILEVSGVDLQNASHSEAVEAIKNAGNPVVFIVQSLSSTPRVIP
# AHNAK1, Q09666 = molecular target: AHNAK1, Q09666
# Sequence of AHNAK1, Q09666 (Q09666 4-100): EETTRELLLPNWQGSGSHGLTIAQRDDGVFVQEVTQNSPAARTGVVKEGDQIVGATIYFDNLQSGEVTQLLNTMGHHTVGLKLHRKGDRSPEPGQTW
# DLG5_1, Q8TDM6 = molecular target: DLG5_1, Q8TDM6
# Sequence of DLG5_1, Q8TDM6 (Q8TDM6 617-713): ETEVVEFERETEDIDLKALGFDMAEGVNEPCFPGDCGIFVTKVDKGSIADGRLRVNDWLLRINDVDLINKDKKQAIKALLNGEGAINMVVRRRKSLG
# GRASP, Q7Z6J2 = molecular target: GRASP, Q7Z6J2
# Sequence of GRASP, Q7Z6J2 (Q7Z6J2 96-193): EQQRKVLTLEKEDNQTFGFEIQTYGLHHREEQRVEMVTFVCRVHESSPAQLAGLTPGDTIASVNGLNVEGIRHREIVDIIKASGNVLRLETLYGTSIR
# PICK1, Q9NRD5 = molecular target: PICK1, Q9NRD5
# Sequence of PICK1, Q9NRD5 (Q9NRD5 17-115): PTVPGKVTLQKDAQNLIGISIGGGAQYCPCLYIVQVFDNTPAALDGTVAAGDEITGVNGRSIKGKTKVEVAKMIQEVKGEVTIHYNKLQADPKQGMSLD
# LIN7C, Q9NUP9 = molecular target: T11, LIN7C, Q9NUP9
# SNX27, Q96L92 = molecular target: SNX27, Q96L92
# MPDZ_5, O75970 = molecular target: T12, MPDZ_5, O75970
# [1] = plain residues with an end cap or a label only (N-terminal biotin on a linker: ado-ado)
# [2] = modified: phospho on T at position -2 from the C-terminal residue
binder,measurement,setting,value
"RRLPGKETMA [GRIK2, Q13002]",pKd,"ARHGAP21, Q5T5U3; [1]",below the threshold
same,pKd,"PDZD2_2, O15018; [1]",below the threshold
same,pKd,"TIAM2, Q8IVF5; [1]",3.97
same,pKd,"LNX1_2, Q8TBB1; [1]",below the threshold
same,pKd,"LAP2, Q96RT1; [1]",below the threshold
same,pKd,"FRMPD2_2, Q68DX3; [1]",below the threshold
same,pKd,"GRIP1_4, Q9Y3R0; [1]",below the threshold
same,pKd,"FRMPD2_1, Q68DX3; [1]",below the threshold
same,pKd,"LIN7B, Q9HAP6; [1]",3.64
same,pKd,"SCRIB_3, Q14160; [1]",below the threshold
same,pKd,"MPP6, Q9NZW5; [1]",below the threshold
same,pKd,"MAGI1_2, Q96QZ7; [1]",below the threshold
same,pKd,"DLG3_1, Q92796; [1]",below the threshold
same,pKd,"MPDZ_10, O75970; [1]",below the threshold
same,pKd,"GRID2IP_2, A4D2P6; [1]",below the threshold
same,pKd,"TX1BP3, O14907; [1]",below the threshold
same,pKd,"SNTB1, Q13884; [1]",below the threshold
same,pKd,"Inadl_6, Q8NI35; [1]",below the threshold
same,pKd,"AHNAK1, Q09666; [1]",below the threshold
same,pKd,"DLG5_1, Q8TDM6; [1]",below the threshold
same,pKd,"GRASP, Q7Z6J2; [1]",below the threshold
same,pKd,"PICK1, Q9NRD5; [1]",below the threshold
same,pKd,"LIN7C, Q9NUP9; [1]",below the threshold
same,pKd,"SNX27, Q96L92; [1]",below the threshold
same,pKd,"MPDZ_5, O75970; [1]",below the threshold
"SKPTRRETEV [HPV35-E6_-2P, P27228]",pKd,"ARHGAP21, Q5T5U3; [2]",4.08
same,pKd,"PDZD2_2, O15018; [2]",below the threshold
same,pKd,"TIAM2, Q8IVF5; [2]",below the threshold
same,pKd,"LNX1_2, Q8TBB1; [2]",below the threshold
same,pKd,"LAP2, Q96RT1; [2]",below the threshold
same,pKd,"FRMPD2_2, Q68DX3; [2]",below the threshold
same,pKd,"GRIP1_4, Q9Y3R0; [2]",below the threshold
same,pKd,"FRMPD2_1, Q68DX3; [2]",below the threshold
same,pKd,"LIN7B, Q9HAP6; [2]",below the threshold
same,pKd,"SCRIB_3, Q14160; [2]",below the threshold
same,pKd,"MPP6, Q9NZW5; [2]",3.78
same,pKd,"MAGI1_2, Q96QZ7; [2]",below the threshold
same,pKd,"DLG3_1, Q92796; [2]",below the threshold
same,pKd,"MPDZ_10, O75970; [2]",below the threshold
same,pKd,"GRID2IP_2, A4D2P6; [2]",below the threshold
same,pKd,"TX1BP3, O14907; [2]",4.07
same,pKd,"SNTB1, Q13884; [2]",below the threshold
same,pKd,"Inadl_6, Q8NI35; [2]",below the threshold
same,pKd,"AHNAK1, Q09666; [2]",below the threshold
same,pKd,"DLG5_1, Q8TDM6; [2]",below the threshold
same,pKd,"GRASP, Q7Z6J2; [2]",below the threshold
same,pKd,"PICK1, Q9NRD5; [2]",below the threshold
same,pKd,"LIN7C, Q9NUP9; [2]",4.05
same,pKd,"SNX27, Q96L92; [2]",3.59
same,pKd,"MPDZ_5, O75970; [2]",below the threshold
"YNNCLEILRV [DCAF7, P61962]",pKd,"ARHGAP21, Q5T5U3; [1]",below the threshold
same,pKd,"PDZD2_2, O15018; [1]",below the threshold
same,pKd,"TIAM2, Q8IVF5; [1]",4.04
same,pKd,"LNX1_2, Q8TBB1; [1]",4.1
same,pKd,"LAP2, Q96RT1; [1]",below the threshold
same,pKd,"FRMPD2_2, Q68DX3; [1]",below the threshold
same,pKd,"GRIP1_4, Q9Y3R0; [1]",below the threshold
same,pKd,"FRMPD2_1, Q68DX3; [1]",below the threshold
same,pKd,"LIN7B, Q9HAP6; [1]",below the threshold
same,pKd,"SCRIB_3, Q14160; [1]",below the threshold
same,pKd,"MPP6, Q9NZW5; [1]",below the threshold
same,pKd,"MAGI1_2, Q96QZ7; [1]",below the threshold
same,pKd,"DLG3_1, Q92796; [1]",below the threshold
same,pKd,"MPDZ_10, O75970; [1]",below the threshold
same,pKd,"GRID2IP_2, A4D2P6; [1]",below the threshold
same,pKd,"TX1BP3, O14907; [1]",below the threshold
same,pKd,"SNTB1, Q13884; [1]",below the threshold
same,pKd,"Inadl_6, Q8NI35; [1]",below the threshold
same,pKd,"AHNAK1, Q09666; [1]",below the threshold
same,pKd,"DLG5_1, Q8TDM6; [1]",below the threshold
same,pKd,"GRASP, Q7Z6J2; [1]",3.9
same,pKd,"PICK1, Q9NRD5; [1]",below the threshold
same,pKd,"LIN7C, Q9NUP9; [1]",below the threshold
same,pKd,"SNX27, Q96L92; [1]",below the threshold
same,pKd,"MPDZ_5, O75970; [1]",below the threshold
"LGRSTPQSEV [DGKH, Q86XP1]",pKd,"ARHGAP21, Q5T5U3; [1]",4.1
same,pKd,"PDZD2_2, O15018; [1]",4.72
same,pKd,"TIAM2, Q8IVF5; [1]",below the threshold
same,pKd,"LNX1_2, Q8TBB1; [1]",below the threshold
same,pKd,"LAP2, Q96RT1; [1]",below the threshold
same,pKd,"FRMPD2_2, Q68DX3; [1]",below the threshold
same,pKd,"GRIP1_4, Q9Y3R0; [1]",below the threshold
same,pKd,"FRMPD2_1, Q68DX3; [1]",below the threshold
same,pKd,"LIN7B, Q9HAP6; [1]",below the threshold
same,pKd,"SCRIB_3, Q14160; [1]",3.8
same,pKd,"MPP6, Q9NZW5; [1]",3.71
same,pKd,"MAGI1_2, Q96QZ7; [1]",below the threshold
same,pKd,"DLG3_1, Q92796; [1]",below the threshold
same,pKd,"MPDZ_10, O75970; [1]",below the threshold
same,pKd,"GRID2IP_2, A4D2P6; [1]",4.16
same,pKd,"TX1BP3, O14907; [1]",4.03
same,pKd,"SNTB1, Q13884; [1]",4.03
same,pKd,"Inadl_6, Q8NI35; [1]",below the threshold
same,pKd,"AHNAK1, Q09666; [1]",below the threshold
same,pKd,"DLG5_1, Q8TDM6; [1]",below the threshold
same,pKd,"GRASP, Q7Z6J2; [1]",3.51
same,pKd,"PICK1, Q9NRD5; [1]",below the threshold
same,pKd,"LIN7C, Q9NUP9; [1]",below the threshold
same,pKd,"SNX27, Q96L92; [1]",3.89
same,pKd,"MPDZ_5, O75970; [1]",below the threshold
